Tested on: Escherichia coli TOP10
Assay: shrunken log2 fold change of peptide-encoding DNA abundance (4.5 h post-induction vs induction); higher = less antimicrobial activity (less host growth inhibition)
Settings: time post-induction: 4.5 h; library: site-saturation at positions 5, 18, 19, 20
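Further: peptides expressed intracellularly from a pBAD plasmid library in pooled LB shake-flask culture, induced with 0.3% L-arabinose, DNA abundance read by NGS, three biological replicates, DESeq2 with apeglm shrinkage.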

Sequence	shrunken log2 fold change
RRIRNRPPRLPRPRPRPIVHPRP	-0.205
RRIRPRPPRLPRPRPRPRFDPRP	0.197
RRIRYRPPRLPRPRPRPFFNPRP	-0.811
RRIRDRPPRLPRPRPRPIYKPRP	-0.175
RRIRHRPPRLPRPRPRPVHNPRP	0.154
RRIRQRPPRLPRPRPRPNLYPRP	-0.647
RRIRLRPPRLPRPRPRPNAYPRP	0.0618
RRIRNRPPRLPRPRPRPAGYPRP	-0.0215
RRIRCRPPRLPRPRPRPSLHPRP	-0.289
RRIRHRPPRLPRPRPRPTRVPRP	0.211
RRIRVRPPRLPRPRPRPNLHPRP	-0.239
RRIRWRPPRLPRPRPRPDWVPRP	0.253
RRIRYRPPRLPRPRPRPMNNPRP	-1.28
RRIRCRPPRLPRPRPRPCQLPRP	-0.171
RRIRPRPPRLPRPRPRPSSFPRP	-0.345
RRIRIRPPRLPRPRPRPFTCPRP	0.0493
RRIRSRPPRLPRPRPRPWSCPRP	0.194
RRIRRRPPRLPRPRPRPFQLPRP	0.0918
RRIRLRPPRLPRPRPRPETDPRP	0.0033
RRIRLRPPRLPRPRPRPAKVPRP	-0.0169
RRIRHRPPRLPRPRPRPTQNPRP	0.666
RRIRVRPPRLPRPRPRPTELPRP	0.324
RRIRDRPPRLPRPRPRPCHQPRP	-0.328
RRIRVRPPRLPRPRPRPCNEPRP	-0.0213
RRIRTRPPRLPRPRPRPNLGPRP	0.152

Sequence	shrunken log2 fold change
RRIRHRPPRLPRPRPRPSMSPRP	-0.0246
RRIRIRPPRLPRPRPRPMMMPRP	-0.227
RRIRARPPRLPRPRPRPGQTPRP	0.178
RRIRVRPPRLPRPRPRPNMAPRP	-0.38
RRIRRRPPRLPRPRPRPHFRPRP	-0.0205
RRIRFRPPRLPRPRPRPVFRPRP	-0.362
RRIRSRPPRLPRPRPRPVVSPRP	0.151
RRIRSRPPRLPRPRPRPNYRPRP	-0.366
RRIRCRPPRLPRPRPRPWCQPRP	-0.32
RRIRLRPPRLPRPRPRPPMCPRP	0.202
RRIRYRPPRLPRPRPRPSDMPRP	-0.00973
RRIRDRPPRLPRPRPRPQKTPRP	-0.253
RRIRSRPPRLPRPRPRPWFWPRP	0.326
RRIRIRPPRLPRPRPRPLYDPRP	-1.02
RRIRQRPPRLPRPRPRPAHTPRP	0.379
RRIRRRPPRLPRPRPRPQFDPRP	0.107
RRIRSRPPRLPRPRPRPWGVPRP	-0.412
RRIRERPPRLPRPRPRPHEDPRP	0.111
RRIRFRPPRLPRPRPRPQWMPRP	-0.414
RRIRVRPPRLPRPRPRPMSPPRP	0.0872
RRIRVRPPRLPRPRPRPKEYPRP	-0.282
RRIRGRPPRLPRPRPRPMCLPRP	0.0563
RRIRGRPPRLPRPRPRPVCPPRP	0.385
RRIRYRPPRLPRPRPRPAMIPRP	-0.229
RRIRKRPPRLPRPRPRPKAGPRP	0.504

Sequence	shrunken log2 fold change
RRIRSRPPRLPRPRPRPTVVPRP	-0.112
RRIRPRPPRLPRPRPRPYHKPRP	-1.15
RRIRQRPPRLPRPRPRPKTAPRP	0.0173
RRIRCRPPRLPRPRPRPVKLPRP	-0.176
RRIRFRPPRLPRPRPRPKFAPRP	0.102
RRIRVRPPRLPRPRPRPNHIPRP	-0.651
RRIRGRPPRLPRPRPRPGWHPRP	0.277
RRIRARPPRLPRPRPRPCSIPRP	-0.092
RRIRCRPPRLPRPRPRPFHCPRP	-0.451
RRIRFRPPRLPRPRPRPGKAPRP	0.0429
RRIRCRPPRLPRPRPRPGKCPRP	-0.173
RRIRTRPPRLPRPRPRPNQDPRP	-0.308
RRIRARPPRLPRPRPRPIEEPRP	-0.0473
RRIRIRPPRLPRPRPRPKTTPRP	-0.301
RRIRIRPPRLPRPRPRPPRMPRP	0.21
RRIRRRPPRLPRPRPRPEITPRP	0.0455
RRIRERPPRLPRPRPRPRGSPRP	0.147
RRIRSRPPRLPRPRPRPQVLPRP	-0.0779
RRIRKRPPRLPRPRPRPNCPPRP	0.0785
RRIRMRPPRLPRPRPRPHPDPRP	-0.0902
RRIRWRPPRLPRPRPRPIATPRP	0.435
RRIRKRPPRLPRPRPRPLPDPRP	-0.105
RRIRTRPPRLPRPRPRPMWMPRP	-0.177
RRIRKRPPRLPRPRPRPNHTPRP	-0.213
RRIRCRPPRLPRPRPRPKNLPRP	-0.292

Sequence	shrunken log2 fold change
RRIRLRPPRLPRPRPRPQHFPRP	-0.343
RRIRSRPPRLPRPRPRPPVVPRP	0.473
RRIRIRPPRLPRPRPRPVHGPRP	-0.0643
RRIRYRPPRLPRPRPRPYHRPRP	-0.236
RRIRLRPPRLPRPRPRPVELPRP	0.0718
RRIRYRPPRLPRPRPRPYNHPRP	-1.5
RRIRERPPRLPRPRPRPSTDPRP	-0.332
RRIRFRPPRLPRPRPRPYQTPRP	-0.0618
RRIRCRPPRLPRPRPRPKLFPRP	0.132
RRIRERPPRLPRPRPRPNKEPRP	-0.0147
RRIRTRPPRLPRPRPRPVLSPRP	-0.328
RRIRSRPPRLPRPRPRPMYSPRP	-1.24
RRIRDRPPRLPRPRPRPNQDPRP	0.000998
RRIRLRPPRLPRPRPRPEAEPRP	0.96
RRIRNRPPRLPRPRPRPVKWPRP	-0.286
RRIRVRPPRLPRPRPRPYTSPRP	-0.0679
RRIRCRPPRLPRPRPRPPREPRP	1.1
RRIRKRPPRLPRPRPRPGKSPRP	0.0157
RRIRPRPPRLPRPRPRPLCFPRP	0.354
RRIRHRPPRLPRPRPRPVMCPRP	-0.175
RRIRNRPPRLPRPRPRPSQQPRP	-0.111
RRIRYRPPRLPRPRPRPQRQPRP	-0.00525
RRIRLRPPRLPRPRPRPRTEPRP	0.0352
RRIRCRPPRLPRPRPRPRCLPRP	-0.32
RRIRARPPRLPRPRPRPMRSPRP	0.0669

Sequence	shrunken log2 fold change
RRIRARPPRLPRPRPRPWISPRP	-0.333
RRIRERPPRLPRPRPRPNPGPRP	-0.55
RRIRVRPPRLPRPRPRPYAEPRP	-0.0642
RRIRTRPPRLPRPRPRPLKGPRP	-0.377
RRIRARPPRLPRPRPRPYRPPRP	-0.179
RRIRGRPPRLPRPRPRPETIPRP	0.224
RRIRDRPPRLPRPRPRPEFNPRP	0.574
RRIRVRPPRLPRPRPRPMFVPRP	0.00262
RRIRWRPPRLPRPRPRPMQKPRP	-0.0122
RRIRSRPPRLPRPRPRPRDTPRP	0.0657
RRIRCRPPRLPRPRPRPMENPRP	0.0267
RRIRWRPPRLPRPRPRPPCMPRP	0.00553
RRIRVRPPRLPRPRPRPAICPRP	-0.0408
RRIRLRPPRLPRPRPRPLSRPRP	-0.247
RRIRWRPPRLPRPRPRPEIMPRP	1.1
RRIRIRPPRLPRPRPRPFATPRP	-0.0964
RRIRIRPPRLPRPRPRPFQQPRP	-0.0967
RRIRDRPPRLPRPRPRPKCQPRP	-0.00187
RRIRERPPRLPRPRPRPKCWPRP	0.23
RRIRGRPPRLPRPRPRPQTIPRP	0.28
RRIRERPPRLPRPRPRPFGTPRP	-0.135
RRIRERPPRLPRPRPRPEKDPRP	-0.137
RRIRWRPPRLPRPRPRPEGVPRP	0.601
RRIRFRPPRLPRPRPRPIKHPRP	-0.485
RRIRFRPPRLPRPRPRPWKIPRP	-0.0171
